Assay results from patent US20200249231.

Experiments:
[1] = target: T1, ARSKL (5-mer on peptide array)
T1 chain: ARSKL

[2] = target: T2, AYRQR (5-mer on peptide array)
T2 chain: AYRQR

[3] = target: T3, DWALQ (5-mer on peptide array)
T3 chain: DWALQ

[4] = target: T4, DWVAQ (5-mer on peptide array)
T4 chain: DWVAQ

[5] = target: T5, DWYLQ (5-mer on peptide array)
T5 chain: DWYLQ

[6] = target: T6, DYALQ (5-mer on peptide array)
T6 chain: DYALQ

[7] = target: T7, DYVAQ (5-mer on peptide array)
T7 chain: DYVAQ

[8] = target: T8, EWALQ (5-mer on peptide array)
T8 chain: EWALQ

[9] = target: T9, EWIAQ (5-mer on peptide array)
T9 chain: EWIAQ

[10] = target: T10, EWVAQ (5-mer on peptide array)
T10 chain: EWVAQ

[11] = target: T11, EYFLQ (5-mer on peptide array)
T11 chain: EYFLQ

[12] = target: T12, EYVAQ (5-mer on peptide array)
T12 chain: EYVAQ

[13] = target: T13, EYVLQ (5-mer on peptide array)
T13 chain: EYVLQ

[14] = target: T14, EYWLQ (5-mer on peptide array)
T14 chain: EYWLQ

[15] = target: T15, FRQRG (5-mer on peptide array)
T15 chain: FRQRG

[16] = target: T16, FRQRQ (5-mer on peptide array)
T16 chain: FRQRQ

[17] = target: T17, FYESK (5-mer on peptide array)
T17 chain: FYESK

[18] = target: T18, FYKYK (5-mer on peptide array)
T18 chain: FYKYK

[19] = target: T19, KYRYK (5-mer on peptide array)
T19 chain: KYRYK

[20] = target: T20, LRYRQ (5-mer on peptide array)
T20 chain: LRYRQ

[21] = target: T21, NYRFK (5-mer on peptide array)
T21 chain: NYRFK

[22] = target: T22, QRQRQ (5-mer on peptide array)
T22 chain: QRQRQ

[23] = target: T23, QYRQR (5-mer on peptide array)
T23 chain: QYRQR

[24] = target: T24, RFYSK (5-mer on peptide array)
T24 chain: RFYSK

[25] = target: T25, RQRQR (5-mer on peptide array)
T25 chain: RQRQR

[26] = target: T26, RYGKS (5-mer on peptide array)
T26 chain: RYGKS

[27] = target: T27, RYRQR (5-mer on peptide array)
T27 chain: RYRQR

[28] = target: T28, RYSKY (5-mer on peptide array)
T28 chain: RYSKY

[29] = target: T29, RYSQR (5-mer on peptide array)
T29 chain: RYSQR

[30] = target: T30, RYTQR (5-mer on peptide array)
T30 chain: RYTQR

[31] = target: T31, Thermus thermophilus SlyD FKBP domain with S. mobaraensis MTG Q-tag DYALQ instead of RYRQR
T31 chain: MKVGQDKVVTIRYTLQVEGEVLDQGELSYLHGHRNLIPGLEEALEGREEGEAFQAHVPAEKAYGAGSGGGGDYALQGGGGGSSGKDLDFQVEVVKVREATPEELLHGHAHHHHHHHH

[32] = target: T32, VRYRQ (5-mer on peptide array)
T32 chain: VRYRQ

[33] = target: T33, WQRQR (5-mer on peptide array)
T33 chain: WQRQR

[34] = target: T34, YKSFK (5-mer on peptide array)
T34 chain: YKSFK

[35] = target: T35, YKSWK (5-mer on peptide array)
T35 chain: YKSWK

[36] = target: T36, YKYKY (5-mer on peptide array)
T36 chain: YKYKY

[37] = target: T37, YKYNK (5-mer on peptide array)
T37 chain: YKYNK

[38] = target: T38, YKYRQ (5-mer on peptide array)
T38 chain: YKYRQ

[39] = target: T39, YQRQR (5-mer on peptide array)
T39 chain: YQRQR

[40] = target: T40, YRQSR (5-mer on peptide array)
T40 chain: YRQSR

[41] = target: T41, YRQTR (5-mer on peptide array)
T41 chain: YRQTR

[42] = target: T42, YRYAK (5-mer on peptide array)
T42 chain: YRYAK

[43] = target: T43, YRYRQ (5-mer on peptide array)
T43 chain: YRYRQ

Z-[GGGARSKLGGGG] = target: T44, Z-[GGGARSKLGGGG]
T44 chain: GGGARSKLGGGG

Z-[GGGDYALQGGGG] = target: T45, Z-[GGGDYALQGGGG]
T45 chain: GGGDYALQGGGG

Z-[GGGMLAQGSGGG] = target: T46, Z-[GGGMLAQGSGGG]
T46 chain: GGGMLAQGSGGG

Z-[GGGQRQRQGGGG] = target: T47, Z-[GGGQRQRQGGGG]
T47 chain: GGGQRQRQGGGG

Z-[GGGRYESKGGGG] = target: T48, Z-[GGGRYESKGGGG]
T48 chain: GGGRYESKGGGG

Z-[GGGRYSKYGGGG] = target: T49, Z-[GGGRYSKYGGGG]
T49 chain: GGGRYSKYGGGG

Z-[GGGYKGRGGGGG] = target: T50, Z-[GGGYKGRGGGGG]
T50 chain: GGGYKGRGGGGG

Z-[GGGYKYRQGGGG] = target: T51, Z-[GGGYKYRQGGGG]
T51 chain: GGGYKYRQGGGG

B1: Kutzneria albida microbial transglutaminase, activated enzyme (KalbTGt3) (protein)
chain: APLAPPLAEDRSYRTWRVEDYVEAWERYHGREMTEDERENLARGCIGVTVVNLNREDLSNPPLNLSFGSLRTAEAVQAALNKIVDTHPSPAQYEAAVAKDPILKRLKNVVKALPSWIDSAKLKASIFSKRFYSWQNPDWSEERAHTTYRPDRETDQVDMSTYRYRARPGYVNFDYGWFDQDTNTWWHANHEEPRMVVYQSTLRHYSRPLQDFDEQVFTVAFAKKDGGGSGHHHHHHHH
Array signal (log2) [1]: 12 log2
5-mer peptide array, incorporation of biotinylated amine donor [2]: the top 22 glutamine-donor substrates identified on the 5-mer peptide array with KalbTG
5-mer peptide array signal with KalbTG [3]: exhibited relatively lower signal on the KalbTG array
5-mer peptide array signal with KalbTG [4]: exhibited relatively lower signal on the KalbTG array
5-mer peptide array signal with KalbTG [5]: exhibited relatively lower signal on the KalbTG array
5-mer peptide array signal with KalbTG [6]: exhibited relatively lower signal on the KalbTG array
Array signal (log2) [6]: 7.22 log2
5-mer peptide array signal with KalbTG [7]: exhibited relatively lower signal on the KalbTG array
5-mer peptide array signal with KalbTG [8]: exhibited relatively lower signal on the KalbTG array
5-mer peptide array signal with KalbTG [9]: exhibited relatively lower signal on the KalbTG array
5-mer peptide array signal with KalbTG [10]: exhibited relatively lower signal on the KalbTG array
5-mer peptide array signal with KalbTG [11]: exhibited relatively lower signal on the KalbTG array
5-mer peptide array signal with KalbTG [12]: exhibited relatively lower signal on the KalbTG array
5-mer peptide array signal with KalbTG [13]: exhibited relatively lower signal on the KalbTG array
5-mer peptide array signal with KalbTG [14]: exhibited relatively lower signal on the KalbTG array
5-mer peptide array, incorporation of biotinylated amine donor [15]: the top 22 glutamine-donor substrates identified on the 5-mer peptide array with KalbTG
Array signal (log2) [15]: 8.82 log2
5-mer peptide array, incorporation of biotinylated amine donor [16]: the top 22 glutamine-donor substrates identified on the 5-mer peptide array with KalbTG
Array signal (log2) [16]: 8.93 log2
5-mer peptide array, incorporation of biotinylated glutamine donor Z-APRYRQRAAGGG-PEG-biotin [17]: the top 17 lysine-donor substrates identified on the 5-mer peptide array with KalbTG
5-mer peptide array, incorporation of biotinylated glutamine donor Z-APRYRQRAAGGG-PEG-biotin [18]: the top 17 lysine-donor substrates identified on the 5-mer peptide array with KalbTG
5-mer peptide array, incorporation of biotinylated glutamine donor Z-APRYRQRAAGGG-PEG-biotin [19]: the top 17 lysine-donor substrates identified on the 5-mer peptide array with KalbTG
5-mer peptide array, incorporation of biotinylated amine donor [20]: the top 22 glutamine-donor substrates identified on the 5-mer peptide array with KalbTG
5-mer peptide array, incorporation of biotinylated glutamine donor Z-APRYRQRAAGGG-PEG-biotin [21]: the top 17 lysine-donor substrates identified on the 5-mer peptide array with KalbTG
5-mer peptide array, incorporation of biotinylated amine donor [22]: the top 22 glutamine-donor substrates identified on the 5-mer peptide array with KalbTG
Array signal (log2) [22]: 8.77 log2
5-mer peptide array, incorporation of biotinylated amine donor [23]: the top 22 glutamine-donor substrates identified on the 5-mer peptide array with KalbTG
Array signal (log2) [23]: 8.7 log2
5-mer peptide array, incorporation of biotinylated glutamine donor Z-APRYRQRAAGGG-PEG-biotin [24]: the top 17 lysine-donor substrates identified on the 5-mer peptide array with KalbTG
5-mer peptide array, incorporation of biotinylated amine donor [25]: the top 22 glutamine-donor substrates identified on the 5-mer peptide array with KalbTG
Array signal (log2) [25]: 8.84 log2
Array signal (log2) [26]: 12.4 log2
5-mer peptide array, incorporation of biotinylated amine donor [27]: the top 22 glutamine-donor substrates identified on the 5-mer peptide array with KalbTG
Array signal (log2) [27]: 8.96 log2
5-mer peptide array, incorporation of biotinylated glutamine donor Z-APRYRQRAAGGG-PEG-biotin [28]: the top 17 lysine-donor substrates identified on the 5-mer peptide array with KalbTG
Array signal (log2) [28]: 12.8 log2
5-mer peptide array, incorporation of biotinylated amine donor [29]: the top 22 glutamine-donor substrates identified on the 5-mer peptide array with KalbTG
Array signal (log2) [29]: 8.93 log2
5-mer peptide array, incorporation of biotinylated amine donor [30]: the top 22 glutamine-donor substrates identified on the 5-mer peptide array with KalbTG
labeling with KalbTG K-tag-Cy3 (SDS-PAGE, in-gel fluorescence) [31]: showed no incorporation of label when incubated with KalbTG
5-mer peptide array, incorporation of biotinylated amine donor [32]: the top 22 glutamine-donor substrates identified on the 5-mer peptide array with KalbTG
5-mer peptide array, incorporation of biotinylated amine donor [33]: the top 22 glutamine-donor substrates identified on the 5-mer peptide array with KalbTG
5-mer peptide array, incorporation of biotinylated glutamine donor Z-APRYRQRAAGGG-PEG-biotin [34]: the top 17 lysine-donor substrates identified on the 5-mer peptide array with KalbTG
5-mer peptide array, incorporation of biotinylated glutamine donor Z-APRYRQRAAGGG-PEG-biotin [35]: the top 17 lysine-donor substrates identified on the 5-mer peptide array with KalbTG
5-mer peptide array, incorporation of biotinylated glutamine donor Z-APRYRQRAAGGG-PEG-biotin [36]: the top 17 lysine-donor substrates identified on the 5-mer peptide array with KalbTG
5-mer peptide array, incorporation of biotinylated glutamine donor Z-APRYRQRAAGGG-PEG-biotin [37]: the top 17 lysine-donor substrates identified on the 5-mer peptide array with KalbTG
5-mer peptide array, incorporation of biotinylated amine donor [38]: the top 22 glutamine-donor substrates identified on the 5-mer peptide array with KalbTG
Array signal (log2) [38]: 8.7 log2
5-mer peptide array, incorporation of biotinylated amine donor [39]: the top 22 glutamine-donor substrates identified on the 5-mer peptide array with KalbTG
5-mer peptide array, incorporation of biotinylated amine donor [40]: the top 22 glutamine-donor substrates identified on the 5-mer peptide array with KalbTG
5-mer peptide array, incorporation of biotinylated amine donor [41]: the top 22 glutamine-donor substrates identified on the 5-mer peptide array with KalbTG
5-mer peptide array, incorporation of biotinylated glutamine donor Z-APRYRQRAAGGG-PEG-biotin [42]: the top 17 lysine-donor substrates identified on the 5-mer peptide array with KalbTG
5-mer peptide array, incorporation of biotinylated amine donor [43]: the top 22 glutamine-donor substrates identified on the 5-mer peptide array with KalbTG
Array signal (log2) [43]: 8.99 log2
Reaction Rate in Solution (pmol s^-1), GLDH-coupled assay with 200 µM glutamine donor (Z-[GGGARSKLGGGG]): 3.87 pmol/s
GLDH-coupled activity assay (Z-[GGGDYALQGGGG]): KalbTG exhibited no activity with preferred S. mobaraensis MTG substrates DYALQ (SEQ ID NO: 22) and MLAQG (SEQ ID NO: 13)
Reaction rate in solution (pmol/s), GLDH-coupled assay (Z-[GGGDYALQGGGG]): -0.05 pmol/s
GLDH-coupled activity assay (Z-[GGGMLAQGSGGG]): KalbTG exhibited no activity with preferred S. mobaraensis MTG substrates DYALQ (SEQ ID NO: 22) and MLAQG (SEQ ID NO: 13)
Reaction rate in solution (pmol/s), GLDH-coupled assay (Z-[GGGMLAQGSGGG]): -0.11 pmol/s
Reaction rate in solution (pmol/s), GLDH-coupled assay (Z-[GGGQRQRQGGGG]): 2.98 pmol/s
Reaction Rate in Solution (pmol s^-1), GLDH-coupled assay with 200 µM glutamine donor (Z-[GGGRYESKGGGG]): 4.47 pmol/s
Reaction Rate in Solution (pmol s^-1), GLDH-coupled assay with 200 µM glutamine donor (Z-[GGGRYSKYGGGG]): 3.89 pmol/s
Reaction Rate in Solution (pmol s^-1), GLDH-coupled assay with 200 µM glutamine donor (Z-[GGGYKGRGGGGG]): 3.01 pmol/s
Reaction rate in solution (pmol/s), GLDH-coupled assay (Z-[GGGYKYRQGGGG]): 4 pmol/s
